Substrate in the data set: O=C[C@H](O)COP(=O)(O)O
The data set is described as follows: Coupled alpha-glycerol-3-phosphate dehydrogenase assay following NADH decrease at 340 nm at 25°C in 100 mM triethanolamine/10 mM EDTA, pH 7.4, with 0.2 mM NADH and GAP varied from 0.3 to 3 mM, fitted to the Michaelis-Menten equation by non-linear regression. The format is biochemical. The procedure:
Glyceraldehyde 3-phosphate (GAP), buffers, salts and all the other analytical grade reagents were acquired from Sigma–Aldrich; α-glycerol-3-phosphate dehydrogenase (α-GDH) was from Roche, crystallization screen kits were obtained from Hampton Research. Restriction enzymes, DNA polymerase and T4 DNA ligase were purchased from New England BioLabs and Invitrogene. Oligonucleotide synthesis and DNA sequencing was performed at the Unidad de Biología Molecular, Instituto de Fisiología Celular, UNAM. Protein concentration was determined by the bicinchoninic acid method or by absorbance at 280 nm for pure GlTIM (ε280 = 26600 M^-1cm^-1). The TIM activity was determined at 25°C by a coupled assay, following the decrease in absorbance at 340 nm. The standard reaction mixture contained 100 mM triethanolamine/10 mM EDTA, pH 7.4 (TE buffer), 1 mM GAP, 0.2 mM NADH, and 0.9 units of α-GDH (20 μg/mL); the reaction was initiated by addition of 5 ng/mL of WT, C222V or C222M GlTIM, 10 ng/mL of C222N, 20 ng/mL of C222D or C222F, and 200 ng/mL of C222K. Kinetic, binding and stability data were analyzed by non-linear regression calculations with Origin software.
Determination of Km and Vmax was performed by fitting initial velocity data at GAP concentrations ranging from 0.3 to 3 mM to the Michaelis-Menten equation (v = Vmax•S/Km+S) by non-linear regression calculations. The kcat was derived from Vmax by considering a molecular mass for the monomer of 27.7 kDa. The Ki for 2-phosphoglycolate (2-PG) was calculated by global fit of initial velocity curves (GAP from 0.3 to 3 mM) obtained at different fixed concentrations of the inhibitor. Prior to fitting collectively the data to the simple competitive inhibition equation (v = Vmax•S/Km(1+I/Ki)+S), individual data were plotted as double reciprocal plots to confirm competitive inhibition.

Data on one protein can be found in article PMC3718800, “Structural and Functional Perturbation of Giardia lamblia Triosephosphate Isomerase by Modification of a Non-Catalytic, Non-Conserved Region” (PLoS ONE, 2013).

B1: GlTIM (Giardia duodenalis) (protein)
chain: MPARRPFIGGNFKCNGSLDFIKSHVAAIAAHKIPDSVDVVIAPSAVHLSTAIAANTSKQLRIAAQNVYLEGNGAWTGETSVEMLQDMGLKHVIVGHSERRRIMGETDEQSAKKAKRALEKGMTVIFCVGETLDERKANRTMEVNIAQLEALGKELGESKMLWKEVVIAYEPVWSIGTGVVATPEQAEEVHVGLRKWFAEKVCAEGAQHIRIIYGGSANGSNCEKLGQCPNIDGFLVGGASLKPEFMTMIDILTKTRT
Consider B1, for which the Michaelis constant (Km) (as a rule, the concentration of substrate that gives half-maximal velocity) worked out at 620 ± 220 µM; the Vmax – broadly, the top rate of the reaction or transport when substrate is in excess – was 8050 µmol/min/mg; the kcat (commonly the maximal rate divided by the concentration of active sites) was determined as 7330 s⁻¹.
